Test results reported in the nanobody polyreactivity screen of Harvey et al. (2022).

Experiment: yeast display, Sf9 membrane polyspecificity reagent, FACS + sequencing; frameworks hold sequencing errors
Procedure, shortened: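 In a synthetic yeast display library (Saccharomyces cerevisiae BJ5465), nanobody expression was induced with galactose for 36–48 hours. FACS gates were set low and high (top ~1%) using anti-HA fluorescence for expression and streptavidin fluorescence for binding of the Sf9 membrane reagent. Each polyreactivity label is drawn from the gate of origin.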

Sequence	polyreactivity (PSR sort gate)
QVQLEESGGRLVQAGGSLRLSCAASGRILRRYTMGWYRQAPGKETELVAAISSGGNTYYADSVKGRFTISRDNAKNTVYLQMNSLKPEDTAVDYCAARVRRYWEYDYWGQGTQVTVSS	low polyreactivity
QVQLVESGGGLVQAGGSLRLSCSASGLIFYDYDMGWYRQAPGKERELVAAISNDASTYYADSVKGRFTISRDNGKNTVYFQMNSLKPEDTAVYYCAAEPYVFGLSSKPFWYNYWGQGTQVTVSS	low polyreactivity
QVQLVESGGGLVQAGGSLRLSCAASGSIFPLYAMGWYRQAPGKERELVAGINGNDGSTYYADSVKGRFTISRDYEKNTVYLQRNRLKPEDTAVYYCAARGSTAHPHYPFNYWGQGTQVTVSS	low polyreactivity
QVQLVESGGGLVQAGGSLRLSCAASGITFRANAMGWYRQAPGKERELVAAISARGGSTYYADSVKGRFTISRDNAKNTVYLQMNSLKPEDTAVYYCNAVAYRSRSEYDYWGQGTQVTVSS	high polyreactivity
QVQLVESGGGLVQAGGSLRLSCAASGRIFDSNAMGWYRQAPGKERELVAYITSGGRTYYADSVKGRFTISRDNAKNTVYLQMNSLKAEDTAVYYCAVRSYKRGPLDYWGQGTQVTVSS	high polyreactivity
QVQRVESAGGLVQAGGSLRLSCAPSGRILPSNAMGWYRQAPGKERELVAGITSGGSTDYADSVKGRFTISRDNAKNTVYIQMHSLKPEDTAVYYCAADSRRYGVRFDYWGQGTQVTVSS	low polyreactivity
QVQLVDSGGGLVQAGGSLRLRGAASGRIFFYYAMGWYRQAPGKERELLAAITYSVDSTYYADSVKGRFTISRDNAKNTVYLQMNSLKPEDTAVYYCAADDIHYVIHAYYSSGVDYWGQGTQVTVSS	low polyreactivity
QVQLVESGGGLVQAGGSLRLSCAASGRIFLYYAMGWYRQAPGKERELVAAITSSGGDTYYADSVKGRFTISRDNANNTVYLQMYSLKPEDTAVYYCAAYSWWNEYDYWGQGTQVTVSS	high polyreactivity
QVQLVESGGGLVQAGGSLRLSCAASGFIFIVYAMGWYRQAPGKERELVASITYSGGGTYYADSVKGRFTISRDNAKNTVYLQKNSLKPEDTAVYYCNADVSWSYSVYREYGMDYWGQGTQVTVSS	low polyreactivity
QVQLVESGGGLVQAGGSLRLSWDASGYTFSRNAMGWYRQAPGKERELVAGISWSGSRTYYADSVKGRFTISRDNAKNTVYLQMNSLKPEDTAVYYCAVLAYGPRNARGGTAGYDYWGQGTEVTVSS	high polyreactivity
QVQLVESGGGLVQAGGSLRLSCAASGIIFPSYDMGWYRQAPGKERELVAAINSGDSTYYADSVKGRFTISRDNAKNTVYLQMNSLKPEDTAVYYCAANPGDLGGWYVPYDYWGQGTQVTVSS	low polyreactivity
QVQLVESGGGLVQAGGSLRLSCAASGLIFYRYTMGWYRQAPGKERELVAAISRRGGSTFYADSVKGRFTISRDNAKNTVYLQMNSLKPEDTAVYYCAAASWYRRKIYYSWGQGTQVTVSS	high polyreactivity
QVQLVESGGGLVQAGGSLRLSCAASGSIFRSNAMGWYRQAPGKERELVAAISSSGGSTYYADSVKGRFTISRDNAKNTVYLQMNSLKPEDTAVYYCNTSVDRGLGYWGQGTQVTVSS	low polyreactivity
QVQLVESGGGLVQAGGSLRLSCAASGSTFRPNAMGWYRQAPGTERELVAAITSGGSTYYADSVKGRFTISRDNAKNTVYLQMNRLKPEDTAVYYFNKDKFWSYPVQVNLDYWGQGTQVTVSS	low polyreactivity
QVQLVESGGGLVQAGGSLRLSCAASGLTFYVYAMGWYRQAPGKERELVAAISGRGGRTYYADSVKGRLTISRDNAKNTVYLQMNSLKPEDTAVYYCNRDYAVFSYGEYDSWGQGTQVTVSS	high polyreactivity
QVQLVESGGGLVQAGGSLRLSSAASGSISDSYAMGWYRQAPGKERELVAAITSGDSTYYADSVKGRFTISRDNAKNTVYLQMNSLKPEDTAVYFCAKRVSRVRGYVFTDWSEYDYWGQGTQVTVSS	low polyreactivity
QVQLVESGGGLVQAGGSLRLSCAASGGTIRVYAMRWYRQAPGKERELVAAITGRGGSTYYADSVKGRFTISRDNAKNTVYLQMNSLKPEDTAVYYCAKDPVTTYYKYDYWGQGTQVTVSS	low polyreactivity
QVQLVDSGGGLVQAGGSLRLSCAASGRIFGAYTMGWYRQAPGKEREFVADITSGGSTDYADSVKGRFTISRDNAKNTVSLQMNSLKPEDTAVYYCAAGGWVASLYLYDYWGHGTQVTVSS	low polyreactivity
HAQLQESGVGLVQAGGSLRRSCAASGSIFRFSGMGWYRRATGKERELVASIGFGSITYYADRVKVRFTISRDNANNTVYLQMTSLKPEDTAVYYCAVQVQDESWLDYWGQGTQVTVSC	low polyreactivity
QVQLVESGGGLVQAGGSLRLSSAASGSIQFRNAMRWYRHAPGKERELVAAITVSGGSTYYADSVKGRFTISRDYAKNRVYLQMNSLKPEDNAVYLCAAVYLLRYSQFDYWGQGTQVTESS	low polyreactivity
QVQLVESGGGLVQAGGSLRLSCAASGSIFYLYAMGWYRHAPGKERELVATITVSGSSTYADSVKGRFTISRDNAKNTVYLQMISLKPEDTAVYYCAADGGRQVYTQLYDYWGQGTQVTVSS	low polyreactivity
QVQLVESGGGLVQAGGSLRLSCAASGRIVYLNAMGWYRQPPGKERELVAAINTSGDSTYYADSVKGRFTISRDNAKNTVYLQMNSLKPVDTAVYYCAAYVIGPDQFIYDYWGQGTQVTVSS	low polyreactivity

Sequence	polyreactivity (PSR sort gate)
QVQLVESGGGLVQAGGSLRLSCAASGFIFYSYPMGWYRKAPGKERALVAAITEDGDSTYYADSVKGRFTISRDNAKNTVYLQMNSLKPVDTAVYYCNTDLTFNGTSGDYDYWGQGTQVTVSS	low polyreactivity
QVQLVESGGGLVQAGGSLRLSCAAYGFTIRRYAMGWSIQAPGKERELVAAITWSAGSTYYADSVKGRFTISRDNAKYTVYLQMNSLKPEDTAVYYCAARCKRWGADSGYYWGNGTQVTVSS	high polyreactivity
QVQLVESGRGLVQAGVSLRLSCAASGSIFEQYAMGWYRQAPGKERELVAAITISGGGTFYADSVKGRFTISRDNAKNTVYLQMNSLKPEDTAVYYCAKRGYYFWSRKYGYWGQGTQVTVSS	low polyreactivity
QVQLVDSGGGLVQAGGSLRLSCAASGFIFAPYAMGWYRQAPGKERELVAAISSSGGSTYYADSVKGRFTISRDNAKNTVYLQMNSLKPEDTAVYYCAVDYLTLTYEYYYWGQGTQVTVSS	low polyreactivity
QVQLVESGGGLVQAGGSLRLSCAASGFTFFGYAMGWYRQAPGKERELVATISDTGGSTYADSVKGRFTISRDNAKNTVYLQMNSLKPEDTAVYYFNARSVFYSMDYWGQGTQVTVSS	low polyreactivity
QVQLVESGGGLVQAGGSLRLSCAASGYTFFEYTMGWYRQAPGKVREFVAAISWSGGITYYADSVKGRFTISRDNAKNTVYLQMNSLKPEDTAVYYCNADIYSPTPIDYNYWGQGTQVTVSS	low polyreactivity
QVQLVESGGGLVQAGGSLRLSCAASGSTFYTNAMGWYRQAPGKERELVAAISASVGSTYYADSVKGRFTISRDNAKNTVYLQMNSLKPEDTAVYNCAADVWASRRYDYWGQGTQVTLSS	low polyreactivity
QVQLVESGGGLVQAGGSLRLSCAASGFTFYKYAMGGYRQEPGKERELVATITISGITNYADSVKGRFTISRDNAKNTVYLQMNSLKPEDTAVYYCATVGPWPGEYDYWGQGTQVTVSS	low polyreactivity
QVQLVESGGGLVQAGGSLRLSCAASGNIFPRYAMGWYRQAPGKERELVARISSGGSTDYADSVKGRFTISRDNAKNTVYLQMNSLKPEDTAVYYCAAEYYSQTVNYRRVVGYGYWGQGTQVTVSS	high polyreactivity
QVQLVESGGGLVQAGGSLRLSCAASGSIFADYTMGWYRQAPGKEREVVAAITSGGSTYYADSVKGRFTISRDNAKNTVYLQMNSLKPEDTAVYYCAAYYGGRGYWGQGTQVTVSS	low polyreactivity
QVQLVESGAGLFQAGGSLRLSCAASGFTFWWYAMGWYRQAPGKQRELVASISSGGSTNYADSVKGRFTISRDNANNTVYLQMNSLKQVDTAVFYCARRMLYSERYSARWQYVYWGQGTQVNVSS	high polyreactivity
QVQLVESGGGLVQAGGSLRLSCAASGSICRQYTMGWYRQAPGKERELVAGINQSGDSTSADSVKGRFTISRDNAKNTVYLQMNSLKPEDTAVYYCNADPRVWYRNIYPGRNYDYWGQGTQVTVSS	low polyreactivity
QVQLVESGGGIVQAGGSLRLSCAASGFTFARNAMGWSRQAPGNEWELVAAISYRGGSTYYADSVKGRFTISRDNAKNTLYLQMNSLKPQDTAVYYCAAEVVWYVYRRYYYWGQGTQVTVSS	high polyreactivity
QVQLVETGGGLVQAGGSLRLSCAASGSTFWYYGMGWYRQAPGKERELVAAISRRGGSTYYADSVKGRFTFSRDNAKNTVYLQMNSLKPEDTAVYYCAADRLIGDGENYYWGQGTQVTVSS	high polyreactivity
QVLLVESGGGLVQAGGSLRLSCAASGRIFGYNTMGWYRQAPGKERELVASISYSGGGTYYADSVKGRFTISRDNAKNTVYLQMNSLKPEDTAVYYCNALSYGYDDAYGYWGQGTQVTVSS	low polyreactivity
QVNLVESGGGLVQAGGSLRLSCAASGLIFFYAMGWYRQAPGKERELVAGISSGGNTNYGDSVKGRFTISRDNAKNTVYLQMNSLKPEDTAVYYCNARGFTGDHQWYLWARPLYDYWGQGTQVTVSS	high polyreactivity
QDQLVESGGGLVQAGGSLRLSCAASGFIFDQYAMGWYRQPPGKERELVAAITSGGDTNYADSVKGRFTISRDNAKNTVYLQMNSLKPEDTAVYYCNAAARGSSFDYWGQGTQVTVSS	low polyreactivity
QVQLVESGGGLVQAGGSLRLSCAASGSIFRRYAMGWYRQAPGKERELVASISSRGTRTYYADSVKGRFTISRDTAKNTVYLQMNSLKPEDTAVYYCAASYYTPYDYWGQGTQVTVSS	high polyreactivity
QVQLVESGGGLVQAGGSLRLSCAASGGTFLSNAMGWYRQAPGKERELVASISWGGGSTTYADSVKGRFTISRDNAKNTVYLQMNSLKPEDTAVYYCNALDGPGYYVDYDYWGQGTQVTVSS	low polyreactivity
QVQLVESGGGLVQAGGSLRLSCAASGSTFYVYAMGWYRQAPRKERELVAAIDGSTGSTYYADSVKGRFTISRDNAKNTVYLQMNSLKPEDTAVYYCNADYYYEVDSWGQGTQVTVSS	low polyreactivity
QVQLVETGGGLVQAGGSLRLSCAASGSTFESNAMGWYRQAPGKERELVAAISRGGNTYYADSEKGRFTISRDNAKNTVYLQMNSLKPEDTAVYYCNVDRGNPVPPSEYWGQGTQVTVSS	low polyreactivity
